The values below come from paper PMC5740062, “CRTC1 mediates preferential transcription at neuronal activity-regulated CRE/TATA promoters” (Scientific Reports, 2017).

In this assay the target is T1, cAMP-responsive element-binding protein (CREB) (mouse (endogenous in primary cortical …, UniProt Q01147-1 1-341, phosphoserine at 133 (blotted as pCREB after FSK/KCl))).
T1 construct: Precipitated with an anti-CREB antibody and detected on blots as phosphorylated CREB (Ser133); also called pCREB; endogenous CREB; source: endogenous, mouse primary cortical neurons (12 DIV), formaldehyde-crosslinked, in lysate
T1 sequence (Q01147 other isoform, or with tags, fused parts or gaps): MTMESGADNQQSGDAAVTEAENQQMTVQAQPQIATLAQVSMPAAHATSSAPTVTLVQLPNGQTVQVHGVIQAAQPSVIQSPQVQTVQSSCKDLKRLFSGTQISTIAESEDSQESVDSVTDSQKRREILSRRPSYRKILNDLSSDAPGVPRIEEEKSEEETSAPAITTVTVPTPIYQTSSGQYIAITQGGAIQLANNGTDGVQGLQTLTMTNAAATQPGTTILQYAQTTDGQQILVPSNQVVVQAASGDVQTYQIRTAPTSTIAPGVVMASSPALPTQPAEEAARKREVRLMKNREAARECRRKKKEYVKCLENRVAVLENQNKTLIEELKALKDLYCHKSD
Description: co-IP; endogenous proteins; cortical neurons (12 DIV) treated with vehicle or FSK/KCl, crosslinked with 1% formaldehyde, lysed by sonication (50 mM Tris-HCl pH 8, 1% Triton X-100, 100 mM NaCl, 1 mM MgCl2); 2 mg protein immunoprecipitated overnight at 4 °C with anti-CREB or anti-CRTC1, Dynabeads protein G; blots of CRTC1 and pCREB; percent normalised to the maximum immunoprecipitation with the specific antibody in …. Conditions: partners not purified.

B1: CREB-regulated transcription coactivator-1 (CRTC1) (natural protein, UniProt Q68ED7 1-630, looked up)
chain: MATSNNPRKFSEKIALHNQKQAEETAAFEEVMKDLSLTRAARLQLQKSQYLQLGPSRGQYYGGSLPNVNQIGSSSVDLAFQTPFQSSGLDTSRTTRHHGLVDRVYRERGRLGSPHRRPLSVDKHGRQADSCPYGTVYLSPPADTSWRRTNSDSALHQSTMTPSQAESFTGGSQDAHQKRVLLLTVPGMEDTGAETDKTLSKQSWDSKKAGSRPKSCEVPGINIFPSADQENTTALIPATHNTGGSLPDLTNIHFPSPLPTPLDPEEPPFPALTSSSSTGSLAHLGVGGAGQGMNTPSSSPQHRPAVVSPLSLSTEARRQQAQQVSPTLSPLSPITQAVAMDALSLEQQLPYAFFTQTGSQQPPPQPQPPPPPPPVSQQQPPPPQVSVGLPQGGPLLPSASLTRGPQLPPLSVTVPSTLPQSPTENPGQSPMGIDATSAPALQYRTSAGSPATQSPTSPVSNQGFSPGSSPQHTSTLGSVFGDAYYEQQMTARQANALSRQLEQFNMMENAISSSSLYNPGSTLNYSQAAMMGLSGSHGGLQDPQQLGYTGHGGIPNIILTVTGESPPSLSKELSSTLAGVSDVSFDSDHQFPLDELKIDPLTLDGLHMLNDPDMVLADPATEDTFRMDRL
notes: also called endogenous CRTC1; source: endogenous, mouse primary cortical neurons (12 DIV), formaldehyde-crosslinked, in lysate
As for B1, the “percent of CRTC1 co-immunoprecipitated with anti-CREB (FSK/KCl), relative to its immunoprecipitation with anti-CRTC1” value is around 37%.
